Here are results for 6 molecules from patent US20180296525A1, “TREATMENT OF AGE-RELATED MACULAR DEGENERATION AND OTHER EYE DISEASES WITH ONE OR MORE THERAPEUTIC AGENTS” (MacRegen, Inc., priority 2017, published 2018).

For data set [1], the system named is neutral lipids in and on the Bruch's membrane. Description: Oil red O staining of neutral lipids in and on the Bruch's membrane, geriatric macaques with age-related maculopathy. The settings on record: injected eyes after 6 monthly intravitreal injections (total 625 μg), compared to eyes injected with placebo. It is filed as in vivo, Macaca fascicularis. The protocol: (§1) The macaque study was conducted according to accepted guidelines. […] One eye per animal received 6 monthly injections of the same escalating dosages of L-4F or scrambled L-4F (total of 625 μg) in a 50 μL volume. The second eye per animal was not injected and was just observed.
Clinical laboratory tests including serology, hemograms and liver enzymes were conducted, and ophthalmic examinations were also performed, including fundus photographs, optical coherence tomography (OCT), intraocular pressure testing and blood sampling. After 7 months, all animals were sacrificed and eyes were immediately prepared for histology. Histochemistry was performed with oil red O for neutral lipids and filipin for esterified cholesterol. […]
For staining with oil red O (ORO), specimens were treated with a 0.3% oil red O (Sigma-Aldrich Biochemie GmbH, Hamburg, Germany) solution (in 99% isopropanol) for 30 min at room temperature (RT), followed by immersion in a 60% isopropanol solution for 12 min. […] Image analysis was performed by grading the intensity of ORO staining (red color) of the Bruch's membrane (BrM) with scores ranging from 0 to 4, according to a qualitative evaluation assessed in four different regions in two separate slices from each eye (a total of 8 different regions from each eye). […]

The nature of data set [2]: Tolerability of intravitreal injections, macaque study. Format: in vivo, Macaca fascicularis. The settings on record: 6 monthly intravitreal injections, all macaques; no significant adverse event or side effect. As for the experimental part:
as §1
Clinical laboratory tests including serology, hemograms and liver enzymes were conducted, and ophthalmic examinations were also performed, including fundus photographs, optical coherence tomography (OCT), intraocular pressure testing and blood sampling. After 7 months, all animals were sacrificed and eyes were immediately prepared for histology. Histochemistry was performed with oil red O for neutral lipids and filipin for esterified cholesterol. Immunohistochemistry was performed against complement factor D (CFD) and the membrane attack complex (MAC, C5b-9), both being markers of activation of the alternative complement pathway.
Circulating hsCRP, which is mainly produced in the liver, is a non-specific marker for systemic inflammation.

For data set [3] the following is noted: estimated; cited from earlier work.
Data set [4] addresses T1, complement factor D (CFD) (Homo sapiens, UniProt P00746).
T1 construct: host or cells: Endogenous CFD in the eyes of AMD patients
The settings on record: patients, monthly intravitreal 10 mg in one eye for 18 months, injected eye, compared to placebo; cited from earlier work.

The conditions of data set [5]: without encapsulated cell technology; cited from earlier work.

T1 sequence (P00746 26-253): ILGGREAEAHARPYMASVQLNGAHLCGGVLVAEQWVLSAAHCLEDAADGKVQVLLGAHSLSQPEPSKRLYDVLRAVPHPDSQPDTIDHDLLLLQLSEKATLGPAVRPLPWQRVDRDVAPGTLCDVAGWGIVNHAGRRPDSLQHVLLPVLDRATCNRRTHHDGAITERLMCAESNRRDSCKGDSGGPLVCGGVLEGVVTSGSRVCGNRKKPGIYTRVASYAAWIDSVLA

On to “Ac-DWFKAFYDKVAEKFKEAF-NH2 [L-4F, Ac-DWFKAFYDKVAEKFKEAF-NH2 acetate salt]”, for which the “reduction of lipid deposits from the BrM (oil red O staining)” value in data set [1] is “about 56%”. In addition, in data set [2], the tolerability result is “well tolerated”. Regarding “aflibercept: soluble fusion protein containing extracellular domains of VEGFRs; anti-VEGF agent”, the intravitreal half-life entry in data set [3] is “about 9.0 days”.

For the molecule bevacizumab: anti-VEGF antibody, in data set [3], the intravitreal half-life result is listed as “about 9.8 days”. Consider “lampalizumab: antigen-binding fragment (Fab) of a humanized monoclonal antibody targeting complement factor D (CFD)”, for which the “reduction in the rate of GA enlargement, and hence the area of GA” value in data set [4] is listed as “about 20%”.

With “ranibizumab: anti-VEGF antibody fragment”, in data set [3], the intravitreal half-life result is “about 7.1 days”.

B1: CNTF: ciliary neurotrophic factor, an endogenous neuroprotector (protein, UniProt P26441 1-200, looked up)
Ciliary neurotrophic factor: MAFTEHSPLTPHRRDLCSRSIWLARKIRSDLTALTESYVKHQGLNKNINLDSADGMPVASTDQWSELTEAERLQENLQAYRTFHVLLARLLEDQQVHFTPTEGDFHQAIHTLLLQVAAFAYQIEELMILLEYKIPRNEADGMPINVGDGGLFEKKLWGLKVLQELSQWTVRSIHDLRFISSHQTGIPARGSHYIANNKKM
Turning to B1, the “half-life of CNTF” value in data set [5] was 1 to 3 min.
